From IntAct's records for PubMed 21586138

B1: E3 ubiquitin-protein ligase SH3RF1 (Homo sapiens), Q7Z6J0 (parent)
chain: MDESALLDLLECPVCLERLDASAKVLPCQHTFCKRCLLGIVGSRNELRCPECRTLVGSGVEELPSNILLVRLLDGIKQRPWKPGPGGGSGTNCTNALRSQSSTVANCSSKDLQSSQGGQQPRVQSWSPPVRGIPQLPCAKALYNYEGKEPGDLKFSKGDIIILRRQVDENWYHGEVNGIHGFFPTNFVQIIKPLPQPPPQCKALYDFEVKDKEADKDCLPFAKDDVLTVIRRVDENWAEGMLADKIGIFPISYVEFNSAAKQLIEWDKPPVPGVDAGECSSAAAQSSTAPKHSDTKKNTKKRHSFTSLTMANKSSQASQNRHSMEISPPVLISSSNPTAAARISELSGLSCSAPSQVHISTTGLIVTPPPSSPVTTGPSFTFPSDVPYQAALGTLNPPLPPPPLLAATVLASTPPGATAAAAAAGMGPRPMAGSTDQIAHLRPQTRPSVYVAIYPYTPRKEDELELRKGEMFLVFERCQDGWFKGTSMHTSKIGVFPGNYVAPVTRAVTNASQAKVPMSTAGQTSRGVTMVSPSTAGGPAQKLQGNGVAGSPSVVPAAVVSAAHIQTSPQAKVLLHMTGQMTVNQARNAVRTVAAHNQERPTAAVTPIQVQNAAGLSPASVGLSHHSLASPQPAPLMPGSATHTAAISISRASAPLACAAAAPLTSPSITSASLEAEPSGRIVTVLPGLPTSPDSASSACGNSSATKPDKDSKKEKKGLLKLLSGASTKRKPRVSPPASPTLEVELGSAELPLQGAVGPELPPGGGHGRAGSCPVDGDGPVTTAVAGAALAQDAFHRKASSLDSAVPIAPPPRQACSSLGPVLNESRPVVCERHRVVVSYPPQSEAELELKEGDIVFVHKKREDGWFKGTLQRNGKTGLFPGSFVENI
partner: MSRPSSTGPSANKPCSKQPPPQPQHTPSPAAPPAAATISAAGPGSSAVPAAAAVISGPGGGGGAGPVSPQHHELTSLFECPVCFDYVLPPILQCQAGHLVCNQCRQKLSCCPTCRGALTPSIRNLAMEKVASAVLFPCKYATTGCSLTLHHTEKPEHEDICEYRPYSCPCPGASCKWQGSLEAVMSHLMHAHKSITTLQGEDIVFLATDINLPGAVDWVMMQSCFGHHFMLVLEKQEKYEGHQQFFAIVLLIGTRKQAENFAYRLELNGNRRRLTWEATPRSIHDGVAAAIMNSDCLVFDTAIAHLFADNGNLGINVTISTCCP

Variants of: B1
Settings: with siah2_human SIAH2, O43255

effect of a mutation on the interaction | Variant
disrupting interaction | V605N;P607N
